Laboratory results: patent publication US20070190574A1, “Diagnostic method for identifying carriers of the Marburg I variant of factor VII-activating protease (FSAP) on the basis of differential modulation of FSAP activity” (DADE BEHRING MARBURG GmbH, priority 2005, published 2007)
“And” between values parts separate entries of the source, which are not always exact repeats. Identical values can stand only once.

Tests used:
Type in all cases: biochemical
[1] = target: T1, FSAP MR I variant (Homo sapiens, UniProt Q14520, G534E); experiment: Change in amidolytic activity of FSAP (S-2288) on addition of activity modulator during the reaction, MR I sample; settings: vmax before/after modulator added at about 60 min; aprotinin 2.95 KIU/ml, MAb about 60 μg/ml; six measurements; negative control 0.81
T1 construct: found for a plasma sample of a heterozygous carrier of the MR I polymorphism; from tissue
T1 sequence (Q14520 314-560 G534E limits assumed): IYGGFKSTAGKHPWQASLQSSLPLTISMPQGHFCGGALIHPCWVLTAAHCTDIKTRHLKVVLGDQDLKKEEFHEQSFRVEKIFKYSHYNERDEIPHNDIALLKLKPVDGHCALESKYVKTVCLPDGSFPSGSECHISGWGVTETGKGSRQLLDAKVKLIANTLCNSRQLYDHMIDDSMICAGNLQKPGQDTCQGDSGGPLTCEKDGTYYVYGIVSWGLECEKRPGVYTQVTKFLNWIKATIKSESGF
T1 sequence (Q14520 24-313 partner limits assumed): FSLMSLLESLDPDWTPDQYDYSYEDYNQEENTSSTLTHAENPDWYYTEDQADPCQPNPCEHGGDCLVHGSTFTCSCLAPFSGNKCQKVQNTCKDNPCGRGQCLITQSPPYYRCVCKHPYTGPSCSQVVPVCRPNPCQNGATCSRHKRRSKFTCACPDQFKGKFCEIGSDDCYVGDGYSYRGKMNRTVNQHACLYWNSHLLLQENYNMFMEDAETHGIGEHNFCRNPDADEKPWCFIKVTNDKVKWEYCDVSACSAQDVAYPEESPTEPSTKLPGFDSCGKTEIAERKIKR
Method: (§1) The microtiter plates used were the same as described in example 1. In each case 100 μl of a plasma sample to be determined were pipetted in a dilution of 1:15 in sample buffer (see example 1) into the wells. After incubation at +37° C. for one hour, unbound constituents were removed by washing three times as in example 1.
To determine the amidolytic activity of FSAP, at time t0 in each case 80 μl of the chromogenic substrate S-2288 (1.5 mmol/L; Chromogenix Instrumentation Laboratory S.p.A., Milano, Italy) in a 50:50 mixture of test buffer I and test buffer II (see example 1for test buffer I and 11) were put into the MTP wells and incubated at +37° C. in a photometer. After about 60 minutes, aprotinin was added in a final concentration of 2.95 KIU/ml or the respective monoclonal antibody (MAb) was added in a final concentration of about 60 μg/ml per reaction mixture. The change in absorption of the reaction mixtures was followed at a wavelength of 405 nm, and the maximum reaction rate vmax was determined (see example 1). […]
Three independent measurements were carried out on the sample of the non-carrier of the FSAP MR I variant (wild-type sample; WT). […] The averages (Av.) of vmax/vmax activity modulator (vmax/vmaxA) and the standard deviations relating to the population (SD) were calculated. […]

[2] = target: T2, FSAP wild type (Homo sapiens, UniProt Q14520); experiment: Change in amidolytic activity of FSAP (S-2288) on addition of activity modulator during the reaction, wild-type sample
T2 construct: found for a plasma sample of a non-carrier (wild type); from tissue
T2 sequence (Q14520 24-560): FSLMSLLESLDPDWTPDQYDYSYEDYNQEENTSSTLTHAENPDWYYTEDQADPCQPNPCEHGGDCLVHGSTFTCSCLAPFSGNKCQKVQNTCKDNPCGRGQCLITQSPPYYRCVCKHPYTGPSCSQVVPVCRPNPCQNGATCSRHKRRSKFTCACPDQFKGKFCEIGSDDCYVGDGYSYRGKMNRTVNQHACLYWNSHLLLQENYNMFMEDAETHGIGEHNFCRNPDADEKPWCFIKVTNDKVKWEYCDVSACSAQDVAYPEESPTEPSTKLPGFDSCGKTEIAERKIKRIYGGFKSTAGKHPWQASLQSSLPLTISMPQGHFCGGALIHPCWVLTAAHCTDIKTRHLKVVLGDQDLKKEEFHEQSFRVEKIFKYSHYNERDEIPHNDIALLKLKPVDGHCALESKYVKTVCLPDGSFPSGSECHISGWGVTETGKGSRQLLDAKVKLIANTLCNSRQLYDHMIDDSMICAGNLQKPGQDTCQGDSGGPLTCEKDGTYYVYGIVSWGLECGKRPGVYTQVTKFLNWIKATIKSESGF
Method: as §1
To determine the amidolytic activity of FSAP, at time t0 in each case 80 μl of the chromogenic substrate S-2288 (1.5 mmol/L; Chromogenix Instrumentation Laboratory S.p.A., Milano, Italy) in a 50:50 mixture of test buffer I and test buffer II (see example 1for test buffer I and 11) were put into the MTP wells and incubated at +37° C. in a photometer. After about 60 minutes, aprotinin was added in a final concentration of 2.95 KIU/ml or the respective monoclonal antibody (MAb) was added in a final concentration of about 60 μg/ml per reaction mixture. The change in absorption of the reaction mixtures was followed at a wavelength of 405 nm, and the maximum reaction rate vmax was determined (see example 1). In order to reduce evaporation effects during the relatively long incubation time, a layer of mineral oil was put on top.
Differentiation between carriers and non-carriers of the FSAP MR I variant is possible through forming a ratio, for example the quotient of the maximum reaction rate before addition of the differential activity modulator (vmax) and the maximum reaction rate after addition of the differential activity modulator (vmax aprotinin).
Three independent measurements were carried out on the sample of the non-carrier of the FSAP MR I variant (wild-type sample; WT). Six independent measurements were carried out on the sample of the heterozygous carrier of the FSAP MR I variant (MR I). The averages (Av.) of vmax/vmax activity modulator (vmax/vmaxA) and the standard deviations relating to the population (SD) were calculated. The negative control, i.e. addition of a corresponding volume of test buffer I and test buffer II in the ratio 50:50 without activity modulator afforded an Av. vmax/vmaxA of 0.81 +/− 0.12. […]

[3] = target: T1, FSAP MR I variant; experiment: Amidolytic activity of FSAP for S-2288 with and without aprotinin, MR I carrier plasma samples
Method: as §1, with “1:50” for “1:15”, “with 50 mM sodium phosphate-buffered isotonic NaCl solution, 0.02% Tweene® 20, pH 6.5.” for “as in example 1.”
(§2) In order to reduce evaporation effects during the relatively long incubation time in the MTP, a layer of mineral oil was put on top.
(§3) The change in absorption (OD) of the reaction mixtures was followed at a wavelength of 405 nm, and the maximum reaction rate vmax was determined (see example 1). Differentiation between carriers and non-carriers of the FSAP MR I variant is possible through the formation of a ratio (quotient) between vmax of the reaction kinetics of a sample without added aprotinin (vmax0) and with added aprotinin (vmax aprotinin). The following applies thereto: • FSAP wild type vmax0/FSAP wild type vmax aprotinin>FSAP MR I vmax0/FSAP MR I vmax aprotinin.

[4] = target: T1, FSAP MR I variant; experiment: Prourokinase-activating activity of FSAP with and without aprotinin (S-2444), MR I carrier plasma samples
Method: (§4) An anti-FSAP antibody produced via the hybridoma cell line DSM ACC2453 was used as solid phase-associated binding partner having affinity for FSAP. Polystyrene microtiter plates (MTPs) were used as solid phase for carrying out the heterogeneous detection method. Anti-FSAP antibodies in 50 mM NaHCO3, pH 8.2, were associated onto the polystyrene solid phase with a coating volume of 120 μl per well of the MTP and a coating concentration of 20 μg of antibody per ml at room temperature overnight. Unbound antibodies were removed by washing three times with 50 mM sodium phosphate-buffered isotonic NaCl solution, 0.02% Tween® 20, pH 6.5.
(§5) In each case 100 μl of a plasma sample to be determined were pipetted in a dilution of 1:80 in sample buffer (20 mM sodium citrate, pH 6.0, with 150 mM NaCl, 100 mM L-arginine monohydrochloride, 1% bovine serum albumin, 0.1% Tweene® 80, 100 I.U. of heparin/ml) into the wells. After incubation at +37° C. for one hour, unbound constituents were removed by washing three times with 50 mM sodium phosphate-buffered isotonic NaCl solution, 0.02% Tweene® 20, pH 6.5.
as §3, with “nm. A differentiation” for “nm, and the maximum reaction rate vmax was determined (see example 1). Differentiation”, “quotient” for “ratio (quotient)”
(§6) The maximum slope of the time-conversion plots was determined by linear regression in a sufficiently linear region of the time-conversion plot and afforded the maximum reaction rate vmax of a reaction in mOD/min.

[5] = target: T2, FSAP wild type; experiment: Prourokinase-activating activity of FSAP with and without aprotinin (S-2444), wild-type plasma samples
Method: as §4, §5
as §3, with “nm. A differentiation” for “nm, and the maximum reaction rate vmax was determined (see example 1). Differentiation”, “quotient” for “ratio (quotient)”
as §6

[6] = target: T2, FSAP wild type; experiment: Amidolytic activity of FSAP for S-2288 with and without aprotinin, wild-type plasma samples
Method: as §1, with “1:50” for “1:15”, “with 50 mM sodium phosphate-buffered isotonic NaCl solution, 0.02% Tweene® 20, pH 6.5.” for “as in example 1.”
as §2, §3

[7] = average over MR I samples, 0.055 KIU/ml aprotinin
[8] = without vs 0.055 KIU/ml aprotinin, MR I samples, one value per sample
[9] = average over WT samples, 0.055 KIU/ml aprotinin
[10] = without vs 0.055 KIU/ml aprotinin, WT samples, one value per sample

Substance: aprotinin
- MRI Av. vmax/vmax A [1]: 12.36
- inhibition of FSAP amidolytic activity after addition of aprotinin in a single reaction mixture, non-carrier versus heterozygous carrier ([2]; FIG. 5, aprotinin added at a reaction time of about one hour): inhibited more strongly in the sample of the non-carrier
- WT/MRI quotient of Av. vmax/vmax A ([2]; WT sample versus heterozygous MR I sample, aprotinin 2.95 KIU/ml, MAb about 60 μg/ml): 1.35
- WT Av. vmax/vmax A ([2]; vmax before/after modulator added at about 60 min, aprotinin 2.95 KIU/ml, MAb about 60 μg/ml, three measurements, negative control 0.81): 16.72
- vmax aprotinin ([3]; 0.055 KIU/ml aprotinin, MR I plasma samples 1:50, S-2288, one value per sample): 1.22 mOD/min and 0.94 mOD/min and 1.87 mOD/min
- Av. vmax0/vmax aprotinin [3, 7]: 1.04
- Av. vmax0 − vmax aprotinin [3, 7]: 0.07 mOD/min
- vmax0/vmax aprotinin [3, 8]: 1.02 and 1.03 and 1.08
- vmax aprotinin ([4]; 0.055 KIU/ml aprotinin, MR I plasma samples 1:80, S-2444, one value per sample): 2.00 mOD/min and 1.84 mOD/min and 2.45 mOD/min
- Av. vmax0/vmax aprotinin [4, 7]: 1.43
- Av. vmax0 − vmax aprotinin [4, 7]: 0.90 mOD/min
- vmax0/vmax aprotinin [4, 8]: 1.52 and 1.35 and 1.41
- vmax0 − vmax aprotinin [4, 8]: 1.04 mOD/min and 0.64 mOD/min and 1.01 mOD/min
- vmax aprotinin ([5]; 0.055 KIU/ml aprotinin, WT plasma samples 1:80, S-2444, one value per sample): 13.82 mOD/min and 12.09 mOD/min and 8.81 mOD/min and 11.84 mOD/min
- inhibition of prourokinase-activating activity of FSAP, non-carrier sample versus heterozygous carrier sample ([5]; FIGS. 1 and 2, 0.036 and 0.055 KIU/ml final aprotinin concentration): substantially more strongly
- Av. vmax0/vmax aprotinin [5, 9]: 2.01
- Av. vmax0 − vmax aprotinin [5, 9]: 11.37 mOD/min
- vmax0/vmax aprotinin [5, 10]: 1.90 and 1.78 and 2.41 and 1.95
- vmax0 − vmax aprotinin [5, 10]: 12.42 mOD/min and 9.38 mOD/min and 12.44 mOD/min and 11.23 mOD/min
- vmax aprotinin ([6]; 0.055 KIU/ml aprotinin, WT plasma samples 1:50, S-2288, one value per sample): 6.90 mOD/min and 9.57 mOD/min and 7.52 mOD/min
- inhibition of amidolytic activity of FSAP, non-carrier sample versus heterozygous carrier sample ([6]; FIGS. 3 and 4, 0.036 and 0.055 KIU/ml final aprotinin concentration): considerably more strongly
- Av. vmax0/vmax aprotinin [6, 9]: 1.48
- Av. vmax0 − vmax aprotinin [6, 9]: 3.81 mOD/min
- vmax0/vmax aprotinin [6, 10]: 1.45 and 1.47 and 1.51
- vmax0 − vmax aprotinin [6, 10]: 3.09 mOD/min and 4.49 mOD/min and 3.86 mOD/min
